Source: patent publication US6001988, “High affinity nucleic acid ligands to lectins” (NeXstar Pharmaceuticals, Inc.)

Experiments:
L-selectin (LS-Rg) [1] = target: T1, L-selectin (LS-Rg) (Homo sapiens, UniProt P14151 P14151:39-332); test: filter; room temp; 2.1 nM at 37 C; conditions: tags: human IgG2 Fc fusion (provided by A. Varki); label: 32P
T1 chain: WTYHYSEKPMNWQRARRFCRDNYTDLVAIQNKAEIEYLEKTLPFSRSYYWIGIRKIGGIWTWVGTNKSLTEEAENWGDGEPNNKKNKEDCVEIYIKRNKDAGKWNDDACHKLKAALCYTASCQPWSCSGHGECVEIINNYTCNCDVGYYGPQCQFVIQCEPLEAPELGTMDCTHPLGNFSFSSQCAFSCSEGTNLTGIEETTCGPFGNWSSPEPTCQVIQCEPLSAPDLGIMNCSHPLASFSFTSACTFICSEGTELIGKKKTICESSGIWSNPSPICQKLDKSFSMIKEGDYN

P-selectin (PS-Rg) [2] = target: T2, P-selectin (PS-Rg) (Homo sapiens, UniProt P16109 P16109:42-321); test: filter; room temp, Ca/Mg buffer; conditions: tags: lectin, EGF and first two CRD domains fused to human IgG1 Fc (provided by A. Varki); chain copies: 2 (dimeric Fc chimera, inferred)
T2 chain: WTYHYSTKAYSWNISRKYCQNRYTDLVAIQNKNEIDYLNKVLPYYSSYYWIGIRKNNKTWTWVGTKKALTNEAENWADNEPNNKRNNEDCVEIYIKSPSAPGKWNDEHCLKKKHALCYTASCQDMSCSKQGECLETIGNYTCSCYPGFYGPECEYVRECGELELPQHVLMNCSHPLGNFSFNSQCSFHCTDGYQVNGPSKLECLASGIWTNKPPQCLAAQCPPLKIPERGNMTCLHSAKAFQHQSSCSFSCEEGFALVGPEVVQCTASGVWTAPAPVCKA
Description: (§1) RNA was reverse transcribed into cDNA by AMV reverse transcriptase at 48° C. for 60 min in 50 mM Tris-Cl pH (8.3), 60 mM NaCl, 6 mM Mg(OAc)_2, 10 mM DTT, 100 pmol DNA primer, 0.4 mM each of dNTPs, and 0.4 unit/µl AMV RT. […] C) Nitrocellulose Filter Partitioning As described in SELEX Patent Applications, the nitrocellulose filter partitioning method was used to determine the affinity of RNA ligands for WGA and for other proteins. Filter discs (nitrocellulose/cellulose acetate mixed matrix, 0.45 µm pore size, Millipore; or pure nitrocellulose, 0.45 µm pore size, Bio-Rad) were placed on a vacuum manifold and washed with 4 ml of HBSS buffer under vacuum. Reaction mixtures, containing ^32P labeled RNA pools and unlabeled WGA, were incubated in HBSS for 10 min at room temperature, filtered, and then immediately washed with 4 ml HBSS. The filters were air-dried and counted in a Beckman LS6500 liquid scintillation counter without fluor. WGA is a homodimer, molecular weight 43.2 kD, with 4 GlcNAc binding sites per dimer. For affinity calculations, we assume one RNA ligand binding site per monomer (two per dimer). The monomer concentration is defined as 2 times the dimer concentration. The equilibrium dissociation constant, K_d, for an RNA pool or specific ligand that binds monophasically is given by the equation $$K_d=[P_f][R_f]/[RP]$$
(§2) The affinity of representative cloned ligands for LS-Rg, ES-Rg, PS-Rg, CD22β-Rg and WGA was determined by nitrocellulose partitioning and the results shown in Table XIV. The ligands are highly specific for L-selectin.
(§3) *Kds were determined at room temperature.

E-selectin (ES-Rg) [3] = target: T3, E-selectin (ES-Rg) (Homo sapiens, UniProt P16581 P16581:22-556); test: filter; room temp, Ca/Mg buffer; conditions: tags: extracellular domain fused to human IgG1 Fc (provided by A. Varki); chain copies: 2 (dimeric Fc chimera, inferred)
T3 chain: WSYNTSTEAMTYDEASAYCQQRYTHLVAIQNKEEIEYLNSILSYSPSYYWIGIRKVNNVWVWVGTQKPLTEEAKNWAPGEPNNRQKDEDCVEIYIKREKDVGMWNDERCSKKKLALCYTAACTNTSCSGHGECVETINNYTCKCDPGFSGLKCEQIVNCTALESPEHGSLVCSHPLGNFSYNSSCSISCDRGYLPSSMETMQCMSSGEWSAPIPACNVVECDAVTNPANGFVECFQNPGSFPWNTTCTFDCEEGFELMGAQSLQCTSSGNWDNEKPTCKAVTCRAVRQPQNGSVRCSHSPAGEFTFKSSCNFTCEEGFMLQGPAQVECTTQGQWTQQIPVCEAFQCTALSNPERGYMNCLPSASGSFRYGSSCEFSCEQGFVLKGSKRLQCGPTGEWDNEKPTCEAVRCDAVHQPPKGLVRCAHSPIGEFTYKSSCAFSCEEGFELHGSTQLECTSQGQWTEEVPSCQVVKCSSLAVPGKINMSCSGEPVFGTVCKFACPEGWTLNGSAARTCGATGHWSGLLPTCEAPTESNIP
Description: as §1, §2, §3

E-selectin (ES-Rg) [4] = target: T3, E-selectin (ES-Rg); test: filter; 4 C, HSMC; conditions: tags: human IgG1 Fc fusion (provided by A. Varki), chain copies: 2, label: 32P
Description: (§4) As described in SELEX Patent Applications, the nitrocellulose filter partitioning method was used to determine the affinity of RNA ligands for LS-Rg and for other proteins. Filter discs (nitrocellulose/cellulose acetate mixed matrix, 0.45 um pore size, Millipore) were placed on a vacuum manifold and washed with 2 ml of HSMC buffer under vacuum. Reaction mixtures, containing ^32P labeled RNA pools and unlabeled LS-Rg, were incubated in HSMC for 10–20 min at 4° C., room temperature or 37° C., filtered, and then immediately washed with 4 ml HSMC at the same temperature. The filters were air-dried and counted in a Beckman LS6500 liquid scintillation counter without fluor.
(§5) The affinity of L-selectin ligands to ES-Rg, PS-Rg and CD22β-Rg were determined by nitrocellulose partitioning. […] In general, a ligand's affinity for ES-Rg is 10^3-fold lower and that for PS-Rg is about 10^4-fold less than for LS-Rg. […] The specificity of oligonucleotide ligand binding contrasts sharply with the binding of cognate carbohydrates by the selectins and confirms the assertion that SELEX ligands will have greater specificity than carbohydrate ligands.
(§6) *Dissociation constants were determined at 4° C. in HSMC buffer.

L-selectin (LS-Rg) [5] = target: T1, L-selectin (LS-Rg); test: filter; 4 C, HSMC; 5.5 nM at room temp; conditions: tags: human IgG2 Fc fusion (provided by A. Varki); label: 32P
Description: as §4
(§7) The dissociation constants for representative ligands from rounds 13 and 14, including all orphans, were determined by nitrocellulose filter binding experiments and are listed in Table IX. These calculations assume two RNA ligand binding sites per chimera. The affinity of random RNA cannot be reliably determined but is estimated to be approximately 10 µM.

L-selectin (LS-Rg) [6] = target: T1, L-selectin (LS-Rg); test: filter; 4 C, HSMC; 1.5 nM at room temp; conditions: tags: human IgG2 Fc fusion (provided by A. Varki); label: 32P
Description: as §4, §7

P-selectin (PS-Rg) [7] = target: T2, P-selectin (PS-Rg); test: filter; 4 C, HSMC; conditions: tags: human IgG1 Fc fusion (provided by A. Varki); chain copies: 2; label: 32P
Description: as §4, §5, §6

[8] = target: T4, wheat germ agglutinin (WGA) (Triticum vulgare, UniProt P10968 P10968:27-197); test: filter; HBSS, room temp; printed as 11.3, SEQ 54; conditions: tags: free lectin, E Y Laboratories; label: 32P
T4 sequence: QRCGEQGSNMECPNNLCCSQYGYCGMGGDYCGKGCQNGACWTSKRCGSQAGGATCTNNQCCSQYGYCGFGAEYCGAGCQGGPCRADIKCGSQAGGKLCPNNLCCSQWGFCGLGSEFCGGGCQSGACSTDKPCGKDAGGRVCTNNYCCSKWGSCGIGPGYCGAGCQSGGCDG
Description: (§8) The specifically eluted fraction was processed for use in the following round. Fractions eluted from immobilized WGA were heated at 90° C. for 5 minutes in 1% SDS, 2% β-mercaptoethanol and extracted with phenol/chloroform. RNA was reverse transcribed into cDNA by AMV reverse transcriptase at 48° C. for 60 min in 50 mM Tris-Cl pH (8.3), 60 mM NaCl, 6 mM Mg(OAc)_2, 10 mM DTT, 100 pmol DNA primer, 0.4 mM each of dNTPs, and 0.4 unit/µl AMV RT. […] C) Nitrocellulose Filter Partitioning As described in SELEX Patent Applications, the nitrocellulose filter partitioning method was used to determine the affinity of RNA ligands for WGA and for other proteins. Filter discs (nitrocellulose/cellulose acetate mixed matrix, 0.45 µm pore size, Millipore; or pure nitrocellulose, 0.45 µm pore size, Bio-Rad) were placed on a vacuum manifold and washed with 4 ml of HBSS buffer under vacuum. Reaction mixtures, containing ^32P labeled RNA pools and unlabeled WGA, were incubated in HBSS for 10 min at room temperature, filtered, and then immediately washed with 4 ml HBSS. The filters were air-dried and counted in a Beckman LS6500 liquid scintillation counter without fluor. […]
The dissociation constants for representative members of families 1–9 and orphan ligands were determined by nitrocellulose filter binding experiments and are listed in Table III. […]

[9] = target: T4, wheat germ agglutinin (WGA); test: filter; HBSS, room temp; 11.4 nM in Table IV; conditions: tags: free lectin, E Y Laboratories; label: 32P; hairpin
Description: as §8, with “fluor. WGA is a homodimer, molecular weight 43.2 kD, with 4 GlcNAc binding sites per dimer. For affinity calculations, we assume one RNA ligand binding site per monomer (two per dimer).” for “fluor.”

[10] = target: T5, Ulex europaeus lectin UEA-II (Ulex europaeus, UniProt P22973 P22973:1-249); test: filter; HBSS, room temp; conditions: tags: E Y Laboratories; label: 32P; hairpin
T5 sequence: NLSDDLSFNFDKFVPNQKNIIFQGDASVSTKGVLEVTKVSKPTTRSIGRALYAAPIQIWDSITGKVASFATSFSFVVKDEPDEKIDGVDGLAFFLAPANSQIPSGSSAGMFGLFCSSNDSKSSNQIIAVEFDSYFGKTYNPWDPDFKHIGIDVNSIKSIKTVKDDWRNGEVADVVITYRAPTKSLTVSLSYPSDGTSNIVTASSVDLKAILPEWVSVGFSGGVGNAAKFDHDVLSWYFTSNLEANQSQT
Description: as §8, with “fluor. WGA is a homodimer, molecular weight 43.2 kD, with 4 GlcNAc binding sites per dimer. For affinity calculations, we assume one RNA ligand binding site per monomer (two per dimer).” for “fluor.”

L-selectin (LS-Rg) [11] = target: T1, L-selectin (LS-Rg); test: filter; 4 C, HSMC (Ca/Mg); biphasic, fraction 0.68, low affinity Kd 60 nM; 1.0 nM at room temp; conditions: tags: human IgG2 Fc fusion (provided by A. Varki); label: 32P; pseudoknot
Description: as §4, §7

L-selectin (LS-Rg) [12] = target: T1, L-selectin (LS-Rg); test: filter; 4 C, HSMC; 15.9 nM at room temp; conditions: tags: human IgG2 Fc fusion (provided by A. Varki); label: 32P; hairpin
Description: as §4, §7

L-selectin (LS-Rg) [13] = target: T1, L-selectin (LS-Rg); test: filter; 4 C, HSMC; biphasic, fraction 0.65, low affinity Kd 14.5 nM; 142 nM at room temp; conditions: tags: human IgG2 Fc fusion (provided by A. Varki); label: 32P
Description: as §4, §7

B1: 122 (ssDNA)
DNA: CTACCTACGATCTGACTAGCGCAACGTGGCCCCGTTTAGCTCATTTGACCGTTCCATCCGGCTTACTCTCATGTAGTTCC
B1 was tested, and the Kd (L-selectin (LS-Rg) [1]) was 1.8 nM, the Kd (P-selectin (PS-Rg) [2]) was 420 nM and the Kd (E-selectin (ES-Rg) [3]) was 400 nM.

B2: F13.42 (ssRNA)
RNA: GGGAGGACGAUGCGGGAUGUAAAUGACAAAUGAACCUCGAAAGAUUGCACACUCCAGACGACUCGCCCGA
modifications: 2'-NH2 all C and U
B2 showed a Kd (E-selectin (ES-Rg) [4]) of 4400 nM and a Kd (L-selectin (LS-Rg) [5]) of 2 nM.

B3: F13.55 (ssRNA)
RNA: GGGAGGACGAUGCGGUGUCUCUCCUGACUUUUAUUCUUAGUUCGAGCUGUCCUGGCAGACGACUCGCCCGA
modifications: 2'-NH2 all C and U
In the case of B3, the Kd (L-selectin (LS-Rg) [6]) is reported as 0.062 nM, the Kd (P-selectin (PS-Rg) [7]) is reported as 5800 nM and the Kd (E-selectin (ES-Rg) [4]) is reported as 49 nM.

B4: 11.30 (ssRNA)
RNA: GGGAAAAGCGAAUCAUACACAAGACGGUUGCUGAACAGAACGUGAGUCUUGGUGAGUCGCACAGAUUGUCCUGCUCCGCCAGAGACCAACCGAGAA
modifications: 2'-NH2 all C and U
In the case of B4, the Kd [8] is reported as 56 nM.

B5: 6.8 (ssRNA)
RNA: GGGAAAAGCGAAUCAUACACAAGAAAGGGAUGGGAUUGGGACGAGCGGCCAAGACUCGGCGGGAACGAAGGGUCCGCUCCGCCAGAGACCAACCGAGAA
modifications: 2'-NH2 all C and U
With B5 the Kd [9] was 11 nM and the Kd [10] was 4400 nM.

B6: F14.20 (ssRNA)
RNA: GGGAGGACGAUGCGGUAACAACAAUCAAGGCGGGUUCACCGCCCCAGUAUGAGUGCAGACGACUCGCCCGA
modifications: 2'-NH2 all C and U
B6 showed a Kd (E-selectin (ES-Rg) [4]; pseudoknot) of 70 nM and a Kd (L-selectin (LS-Rg) [11]) of 0.058 nM.

B7: F14.21 (ssRNA)
RNA: GGGAGGACGAUGCGGUUGAGAUGUGUGAGUACAAGCUCAAAAUCCCGUUGGAGGCAGACGACUCGCCCGA
modifications: 2'-NH2 all C and U
With B7 the Kd (L-selectin (LS-Rg) [12]) was 2.3 nM and the Kd (E-selectin (ES-Rg) [4]; hairpin) was 2600 nM.

B8: F14.53 (ssRNA)
RNA: GGGAGGACGAUGCGGUCCCAGAGUCCCGUGAUGCGAAGAAUCCAUUAGUACCAGACAGACGACUCGCCCGA
modifications: 2'-NH2 all C and U
In the case of B8, the Kd (P-selectin (PS-Rg) [7]) is reported as 5200 nM, the Kd (E-selectin (ES-Rg) [4]) is reported as 355 nM and the Kd (L-selectin (LS-Rg) [13]) is reported as 0.097 nM.
